Assay results taken from the nanobody polyreactivity screen of Harvey et al. (2022).

Assay: yeast display, Sf9 membrane polyspecificity reagent, FACS + sequencing; frameworks hold sequencing errors
In short: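 After 36–48 hours of galactose induction, yeast (Saccharomyces cerevisiae BJ5465) displaying a synthetic nanobody library were stained at 4 °C for 1 hour with 10% biotinylated, detergent-solubilized Sf9 membrane reagent. Streptavidin microbeads enriched the stained cells before FACS sorting into low and high (top ~1%) gates on anti-HA and streptavidin fluorescence. Each clone's polyreactivity label reflects its gate of origin.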

Row | Sequence | polyreactivity (PSR sort gate)
1 | QVQLVESGGGLVQAGGSLRLSCAASGSTFAPNALGWSRQAPGKERELVAAIRTNTVSTYYADSVKGRFTISRDNAKNTVYLQMNSLKPEDTEVYYCAAVFSGFYYAYDYWGQGTQVTVSS | high polyreactivity
2 | QVQLVESGGGLVQAGGSLRLSCAASGRIFRYYAMGWYRQAPGQERELVAAITWSGGSTYYADSVKGRFTISRDNAKNTVYLQMNSLKPEDTAVYYCNAKSYQPFHGDYWGQGTQVTVSS | low polyreactivity
3 | QVQLVESGGGLVQAGGSLRLSCAASGSTFGKNAMGWYRQAPGKERELVAAISRSGGRTYYADSVKGRFTISRDNAKNTVYLQMNSLKPEDPAVYYCAREWYTAGSGDYWGQGTQVTVSS | low polyreactivity
4 | QVQLVESGGGLVQAGGSLRLSCAASGRTFQYYAMGWYRQAPGQERELVAAITSGGSTYYADSVKGRFTISRDNAKNTVYLQMNSLKPEDTAVYYCAATFYYSGHYDYWGQGTQVTVSS | low polyreactivity
5 | QVQLVESGGGLVQAGGSLRLSCAASGRIFRVYALGWSRQAPGKERELVAAITSGGSTYYADSVKGRFTISRDNAKNTVYLQMNSLKPEDSAVYYCAAKRFRYRPGDYWGQGTQVTVSS | high polyreactivity
6 | QVQLVESGGGLVQAGGSLRLSCAASGSTFTRYAMGWYRQAPGKERELVAGITGRGGSTYYADSVKGRFTISRDNAKNTVYLQMNSLKPEDTAVYYCNKRRRGVTTYDYWGQGTQVTVSS | high polyreactivity
7 | QVQLVESGGGLVQAGGSLRLSCAASGSTFHTYGMGWYRQAPGKERELVSAIDLSDGSTYYADSVKGRFTISRDNAKNTVYLQMNSLKPEDTAVYYCNADYFPKPYRPDDYWGQGTQVTVSS | low polyreactivity
8 | QVQHVESGGGLVQAGGSLRLSCAASGFIFAANAMGWYRQGPGKERELVAAINYRGSSTYYADSVKGRFTISRDNAKNTVNLQMNSLKPEDTAVYYCAARSGAQRGGGYWGQGTQVTVSS | high polyreactivity
9 | QVQLVESGGGLVQAGGSLRLSCAASGSTLTRNTMGWYRQAPGKERELVATITRSGGSTYYADSVKGRFTISRDNAKNTVYLQMNSLKPEDTAVYYCAKRGRLRNYDYWGQGTQVTVSS | high polyreactivity
10 | QVHLVESGGGLVQAGGSLRLSCDASGSIFPVNAMGWYRQAPGKERELVATITWRGGRTYYADSVKGRFTISRDNAKNTVYLQMNSLKPEDTAVYYCAARLLYRHFGYWGQGTQVTVSS | high polyreactivity
11 | QVQLVESAGGLVQAGGSLRLSCAASGRTFGWYAMGWYRQAPGKERELVAAITSSDDSTYYADSVKGRFTISRDNAKNTVYLQMNSLKPEDTEVYYCNKVKYFARSAYGYWGLGTQVTVSS | low polyreactivity
12 | QVQRVESGGGLVQAGGSLRLSCAASGSIFASNAMGWYRQAPGKERELVADISGTTGSTYYADSVKGRFTISRDNAKNTVYLQMNSLKPEDTAVYYCAADLVWVSTSYYYWGQGTQVTVSS | low polyreactivity
13 | QVQLVESGGGLVQAGGSLRLTCAASGLSSLRMLWDGIDRRLGKKGSWLPLLTSGGDSTNYADSVKGRFTISRDTAKNTVYLQIISLKPEDTAVYYCAADLDYPYGYWGQGTQVTVSS | low polyreactivity
14 | QVQLVESGGGLVQAGGSLRLSCAASGSIFRYNAMGWYRQAPGKERELVAAISASGGRTHDADSVKGRFTISRDNAKNTVYLQMNSLKPEDTAVYYCAAATYRGTSLYGYWGQGTQVTVSS | high polyreactivity
15 | QVQLVESGGGLVQAGGSLRLSCAASGRIFGEKAMGWYRQAPGKERELVADITWSGTSTYYADSVKGRFTISRDNAKNTVYLQMNSLKPEDTAVYYCAASATLFSSRGKRYYWGQGTQVTVSS | low polyreactivity
16 | QVQLVESGGGLVQAGGSLRLSCAASGSIFGLYAMGWYRQAPGKERELVAVITYSVGTTYYADSVKGRFTISRDNAKNTVYLQMNSLKPEDTAVYYCAADLYWYYPWSAYYGEYDYWGQGTQVTVSS | low polyreactivity
17 | QVQLVESGGGLVQAGGSLRLSCAASGRTIWNYALGWYRQGPGKERELVAVIRFSDGSTYYADSVKGRFTISRDNAKNTVYLQMNSLKPEDTAVYYCAAKGPRLWGSGFDYWGQGTQVTVSS | low polyreactivity
18 | QVQLVESGGGLVQAGGSLRLSCAASGLTFRYYAMGWYRQAPGKERELVAAITRGARTNYADSVKGRFTISRDNAKNTVYLQMNSLKPEDTAVYYCNAGFTGLHRYGYWGQGTQVTVSS | high polyreactivity
19 | QVQLVESGGGLVQAGGSLRLSCAASGRIFVDNAMGWYRQAPGKERELVATISWSGGSTYADSVKGRFTISRDNAKNTVYLQMNSLKPEDTAVYYCAADGSWQFYTLYQEFDYWGQGTQVTVSS | low polyreactivity
20 | QVQLVESGAGLVQAGGSLRFSCAASGFIFVAYAMGLYRPAPGKERELVAAITSSGGTTYYADSVKGRFTISRDNAKNSVYFQMNSLKPEDTAVYYSAAYRRRSPFEYWGQGTQVNVSS | high polyreactivity
21 | QVQLVESGGGLVQAGGSLRLICAASGSTFDGYAMGWYRQAPGKERELVAAISKNGVRTYYADSVKGRFTISRDNAKNTVYLLMNSLKPEDTAVYYCAKDIIKYDYDYWGQGTQVTVSS | low polyreactivity
22 | QVQLVESGGGLVQAGGSIRLSCAPSGRTFRYYAMGWYRQAPGKERELVAAISRSGGSTYYADSVKGRFTISRDNAKNTVYLQMNSLKPEVTAVYYCADRYYVPWFGPSKYTPYDYWGQGIQVTVSS | high polyreactivity

Row | Sequence | polyreactivity (PSR sort gate)
23 | QVQLVESGGGLVQAGGSLRLSCAASGSIFVTYAMGLYRQAPGKERELVAAITSSDRTKYADSVKGRFTISRDNAKNTVYVQMHSLKPEDTAVYYGAKVVRTRYYGGYDYWGQVTQVTVSS | high polyreactivity
24 | QFQLVESGVGLVQAGGSLRFSCAASGRIFMPNAMGWYRQSPGKEREFVASISWSGGSTYYADSVKGRFTISRDNAKTTDYLQMNSLKPEDTAVYYCNARYGKRYYYWGQGTQVTVSS | low polyreactivity
25 | QVQLVESGGGLVQAGGSLRLSCAASGRILGRYAMGWYRQAPGKERELVAAITARTGSTYYADSVKGRFTISRDNAKNTVYLQMNSLKPEDTAVYYCAAERGWWRNDFDYWGQGTQVTVSS | high polyreactivity
26 | QVQLVESGGGLVQAGGSLRLSCAASGFIFVYGNVMGWYRQAPGKERELVASITSDGGSTNYADSVKGRFTISRDNAKNTVYLQMNSLKPEDTAVYYCNADVPRGFGGEYDYWGQGTQVTVSS | low polyreactivity
27 | QVQLVESGGGLVQAGGSLRLSCAASGSIFQPYAMGWYRPAPGKERELVAAINGRGGSTHYADSVKGRFTISRDNAKNTVYLQMNSLNPEDTAVYYCAATWAYPGSGYVYFYGNDYWGQGTQVTVSS | high polyreactivity
28 | QVKLVESAGGLVQAGGSLRLSCAASGRTFVGNAMGWYRQEPGKEREVVAAITSRTGSTYYADSVKGRFTISRDNAKNTGYLQMNSLKPEDTAVYYGATPYYQIVYSRKAYNFWGQGTQVTVSS | high polyreactivity
29 | QVQLVESGGGLVQAGGSLRLSCAASGRIFKQYAMGWYRQAPGKERELVAAISWDGGSTYYADSVKGRFTISRDNAKNTVYLQMNSLKPEDTAVYDCNKDLYYAYDYWGQGTQVTVSS | low polyreactivity
30 | QVQLVESGGGLVQAGGSLRLSCAASGSTFKAYAMGWYRQAPGKERELVAAITNSDGDTYYADSVKGRFTISRDNAKNTVYLLMNSLKPEDTAVYYFNADDALRQTSDYNYWGQGTQVTVSS | low polyreactivity
31 | QVQLVESGGGLVQAGGSLRLSCAASGRTFYYYTMGWYRQAPGKERELVAAITWNGGSTYYADSVKGRFTISRDNAKNTVYLQMNSLKPEDTGVYYCIARWTWRYDYWGQGTQVTLSS | high polyreactivity
32 | QVQLVESGGGLVQAGGSLRLSCAASGRTFGKYTMGWYRQAPGKERELVAAINRRGGSTYYADSVKGRFTISRDNAKNTVYLQMNSLKPEDTAVYYCAKDGYSIDRYYWGQGTQVTVSS | high polyreactivity
33 | QVQHVESGGGLVQAGGSLRLSCAASGFTFPGYAMGWYRQAPGKERELVAAISSSGGRTNYADSVKGRFTISRDNAKNTVYLQMNSLKPEDTAVYYCKAVRTVRSYLQLTRHLVYWGQGTQVTVSS | high polyreactivity
34 | QVQLVESGGGLVQAGGSLRLSCAASGSTDSNAMGWNRQAPGKEREMVAPISGTGSRTYYADSVKGRFTISRDNAKNTVYFQLNSLKTEDTAVYYCNKDVYGYSRTGPRGYDYWGQGTQVTVSS | high polyreactivity
35 | QVQLVESGGGLVQAGGSLRLSCAASGSTFQGYAMGWYRQAPGKERELVAAINYSGGSTYYADSVKGRFTISRDNAKNTVYFQMNSLKPEDTAVYYCAVKLRSRAVTSYGYWGQGTQVTVSS | high polyreactivity
36 | QVQLVESGGGLVQAGGSLRLSCAASGRTFAAYTMGWYSQAPGKERELVAAIRRSGSSTYYADSVKGRFTISRDNAKNTVYLQMNSLKPEDTAVYYCARVGRFTGGGYWGQGTQVTVSS | high polyreactivity
37 | QVQLVESGGGLVQAGGSLRLSCAASGSTFDYNAMGWYRQAPGTERELVAAISRGGNTYYADSVKGRFTISRDNAKNTVYLQMNSLKPEDTAVYYCAKDSYGSYRFVRKRQKAYGYWGQGTQVTVSS | low polyreactivity
38 | QVQLVESGGGLVQAGGSLRLSCAASGFTFTYYAMGWYRQAPGKERELVAVITRSGNTYYADSVKGRFTISRDNAKNTVYLQMNSLKPEDTAVYYCATVGQRLHLGYWGQGTQVTVSS | high polyreactivity
39 | QVQLVESGGGLVQAGGSLRLSCAASGSTLYRNGMGWYRQAPGKEMEFVAAISWSGASTYYADSVKGRFTISRDNAKNTVYLQMNSLKPEDTAVYYCNARGPTVYETHNYWGQGTQVTVSS | low polyreactivity
40 | QVQLVESGGGLVQAGGSLRLSCAASGIIFYLYTMGWYRQAPGKERELVAAITRGGSTYYADSVKGRFTISRDNAKNTVYLQMNSLKPEDTSVYYCAAKHGPGYRRWYDYWGQGTQVTVSS | high polyreactivity
41 | QVQLVESGGGLVQAGGSLRLSCAASGLTFVTYVMGWYRLAPGKERELVAAISYSGGSTYYADSVKARFTISRDNAKNTVYLLMNSLKPEDTAVYYCAAEWYGYEEDDYWGQGTQVTVSS | low polyreactivity
42 | QVQLVESGGGLVQAGGSLRLSCAASGSIFDRNAMGWYRQAPGKERELVSAISRGGRTYYADSVKGRFTISRDNAKNTVYLQMNSLKPEVTAVYYCAAGYPSAWAYTTDDYWGQGTQVTVSS | low polyreactivity
43 | QVQLVESGGGLVQAGGSLRLSCAASGIIFIKYAMGWYRQAPGKERELVAAITSGGSTHYADSVKGRFTISRDNAKNTVYLQMNSLKPEDTAVYYCNADILRHVAYFKDRYQAGSYWGQGTQVTVSS | low polyreactivity
